According to patent publication US20240325557A1, “TREATMENT OF CANCER” (INNATE PHARMA, priority 2020, published 2024):
Changes are numbered by the printed parent chain. Blank lines part the entries; values can stand above or below the binder they belong to.

Legend:
[1] = biological target: Rat Nectin-4 on CHO cells (rat); experiment: flow cytometry titration on CHO cells expressing rat Nectin-4, median MFI (PE)
[2] = biological target: monomeric huNectin4-his-BirA protein (human) (UniProt Q96NY8); experiment: SPR (Biacore T200), antibody captured on Protein A, monomeric huNectin4-his-BirA injected

EC50 (read off the curve) [1]: 0.1 µg/mL
B1: antibody 5E7 (antibody, human IgG1, V domains shown)
VH: QVQLQQPGAELVKPGASVKLSCKASGYIFTSYWMHWVKQRPGQGLEWIGEIDPSDSYTNYNQKFKGKATLTLDKSSSTTYMQLSSLTSEDSAVYYCVRGYGNYGDYWGQGTTLTVSS
VL: DVVMTQAAFSNPVTLGTSASISCRSSKSLLHSNGITYLYWYLQKPGQSPQLLIYQMSNLASGVPDRFSSSGSGTDFTLRISRVEAEDVGVYYCAQNLELPWTFGGGTKLEIK

EC50 (read off the curve) [1]: 0.1 µg/mL
B2: antibody 10B12 (antibody, human IgG1, V domains shown)
VH: B1 VH with I28T, L72V, T79A
VL: B1 VL with V2I

Kd [2]: 13.7 nM
koff [2]: 0.0047 s⁻¹
kon [2]: 340000 M⁻¹ s⁻¹
B3: Enfortumab (ASG-22ME) (antibody, from a related filing, V domains shown)
VH: EVQLVESGGGLVQPGGSLRLSCAASGFTFSSYNMNWVRQAPGKGLEWVSYISSSSSTIYYADSVKGRFTISRDNAKNSLSLQMNSLRDEDTAVYYCARAYYYGMDVWGQGTTVTVSS
VL: DIQMTQSPSSVSASVGDRVTITCRASQGISGWLAWYQQKPGKAPKFLIYAASTLQSGVPSRFSGSGSGTDFTLTISSLQPEDFATYYCQQANSFPPTFGGGTKVEIKR
